Laboratory results published in patent US20230192886A1 (published 2023).

T1: PRAME (PRAME-004) peptide on HLA-A*02:01 (human)
T1 peptide: SLLQHLIGL


Molecular target: T1, PRAME (PRAME-004) peptide on HLA-A*02:01
Assay: cytokine release

binding result	Binder
recognises	R17P1D7 (TCR, V domains shown) Valpha: AQTVTQSQPEMSVQEAETVTLSCTYDTSESDYYLFWYKQPPSRQMILVIRQEAYKQQNATENRFSVNFQKAAKSFSLKISDSQLGDAAMYFCAYRWAQGGSEKLVFGKGTKLTVNP Vbeta: EADIYQTPRYLVIGTGKKITLECSQTMGHDKMYWYQQDPGMELHLIHYSYGVNSTEKGDLSSESTVSRIRTEHFPLTLESARPSHTSQYLCATELWSSGGTGELFFGEGSRLTVL
recognises	R17P1A9 (TCR, V domains shown) Valpha: QKEVEQNSGPLSVPEGAIASLNCTYSDRGSQSFFWYRQYSGKSPELIMSIYSNGDKEDGRFTAQLNKASQYVSLLIRDSQPSDSATYLCAVLNQAGTALIFGKGTTLSVSS Vbeta: DSGVTQTPKHLITATGQRVTLRCSPRSGDLSVYWYQQSLDQGLQFLIQYYNGEERAKGNILERFSAQQFPDLHSELNLSSLELGDSALYFCASSAETGPWLGNEQFFGPGTRLTVL
recognises	R16P1E8 (TCR, V domains shown) Valpha: QKEVEQDPGPLSVPEGAIVSLNCTYSNSAFQYFMWYRQYSRKGPELLMYTYSSGNKEDGRFTAQVDKSSKYISLFIRDSQPSDSATYLCAMSEAAGNKLTFGGGTRVLVKP Vbeta: EAGVAQSPRYKIIEKRQSVAFWCNPISGHATLYWYQQILGQGPKLLIQFQNNGVVDDSQLPKDRFSAERLKGVDSTLKIQPAKLEDSAVYLCASSYTNQGEAFFGQGTRLTVV
